Assay results reported in article PMC3282769, “New Insight into the Transcarbamylase Family: The Structure of Putrescine Transcarbamylase, a Key Catalyst for Fermentative Utilization of Agmatine” (PLoS ONE, 2012).

Target: the molecule itself
Test: SEC; analytical size exclusion chromatography, Superdex 200HR 5/150 GL, 20 µl of 10 mg/ml protein injected, 24°C, 50 mM Hepes pH 7.5, 0.25 M NaCl; column calibrated with protein standards

Row | Protein | stoichiometry N
1 | Enterococcus faecalis PTC lacking the C-terminal helix (helix 13), amino acids 1-317 (domain or fragment, putrescine transcarbamylase, Enterococcus faecalis SD10 genomic DNA, gene ef0732, amino acids 1-317 followed by a stop codon (stop codon at position 318); Cloned in pNIC28-Bsa4; Most of the protein eluted as hexamers, a small fraction as monomers; also called truncated PTC; Trun; source: E. coli BL21 (DE3) co-transformed with pGroESL, purified (Ni-based chromatography)) not shown | 6
2 | putrescine transcarbamylase (PTC) from Enterococcus faecalis, wild type (enzyme, putrescine transcarbamylase, Enterococcus faecalis, gene ef0732, UniProt Q837U7; the final PTC-PAPU model has residues 1 to 340 in each chain; also called wild-type PTC; WT) not shown | 3
